The target in the assay is T1, MASP-2 CCP1-CCP2-SP fragment (human, UniProt O00187 291-444; O00187 445-686).
T1 construct: range 291-444;range 445-686; also called MASP-2γB; MASP-2 catalytic fragment
Nature of the assay: SDS-stable complex formation of 125I-labelled MASP fragment with C1-inhibitor; irreversible inhibition preceded by reversible complex formation, non-linear regression. On the procedure:
To assess the rate of SDS stable complex formation between the MASP-1 and MASP-2 CCP1-CCP2-SP fragments and C1-inhibitor, the ¹²⁵I-labelled MASP fragments at concentrations ranging between 30-100 nM were incubated with 100-350 nM C1-inhibitor at 37° C. in 20 mM HEPES, 140 mM NaCl, pH 7.4 for 40 minutes. Typically 11-13 samples were taken at varying time periods. […] The samples were further incubated at 37° C. for 30 minutes and run on reducing SDS-PAGE. Cleavages rates were visualized by means of autoradiography and the diminution of the reacted MASP chain was quantified using a GEL DOC 1000 instrument and Molecular Analyst Software for densitometric calculations (Bio-Rad, Hercules, Calif., USA). The kinetic constants were calculated assuming irreversible inhibition proceeded by reversible enzyme-inhibitor complex formation. Using steady-state approximation and neglecting the starting enzyme concentration compared to the starting inhibitor concentration ([I₀]>>[E₀]) the data was regressed on the following equation using non-linear regression methods: [E]=[E₀]exp(−kobst); kobs=k₂[I₀]/(Kᵢ+[I₀]), where kobs is the observed pseudo-first order rate of reaction, k₂ is the rate of irreversible enzyme-inhibitor complex formation and Kᵢ is the inhibitory constant.

T1 sequence (O00187 291-444 limits assumed, form in doubt, chain 1 of 2): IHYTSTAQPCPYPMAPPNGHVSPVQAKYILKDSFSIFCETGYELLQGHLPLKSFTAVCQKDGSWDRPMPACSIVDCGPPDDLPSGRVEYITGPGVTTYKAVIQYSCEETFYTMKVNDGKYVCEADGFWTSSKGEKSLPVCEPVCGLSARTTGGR
T1 sequence (O00187 445-686 limits assumed, form in doubt, chain 2 of 2): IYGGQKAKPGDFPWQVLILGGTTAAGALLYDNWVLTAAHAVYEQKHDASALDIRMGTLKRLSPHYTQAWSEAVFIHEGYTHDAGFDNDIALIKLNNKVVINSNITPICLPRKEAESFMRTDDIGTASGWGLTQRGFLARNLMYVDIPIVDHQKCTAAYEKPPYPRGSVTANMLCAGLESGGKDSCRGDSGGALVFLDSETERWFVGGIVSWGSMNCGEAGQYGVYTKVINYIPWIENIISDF

B1: C1-inhibitor (other, human, UniProt P05155 23-500, looked up)
chain: NPNATSSSSQDPESLQDRGEGKVATTVISKMLFVEPILEVSSLPTTNSTTNSATKITANTTDEPTTQPTTEPTTQPTIQPTQPTTQLPTDSPTQPTTGSFCPGPVTLCSDLESHSTEAVLGDALVDFSLKLYHAFSAMKKVETNMAFSPFSIASLLTQVLLGAGENTKTNLESILSYPKDFTCVHQALKGFTTKGVTSVSQIFHSPDLAIRDTFVNASRTLYSSSPRVLSNNSDANLELINTWVAKNTNNKISRLLDSLPSDTRLVLLNAIYLSAKWKTTFDPKKTRMEPFHFKNSVIKVPMMNSKKYPVAHFIDQTLKAKVGQLQLSHNLSLVILVPQNLKHRLEDMEQALSPSVFKAIMEKLEMSKFQPTLLTLPRIKVTTSQDMLSIMEKLEFFDFSYDLNLCGLTEDPDLQVSAMQHQTVLELTETGVEAAAASAISVARTLLVFEVQQPFLFVLWDQQHKFPVFMGRVYDPRA
notes: mature; Serum-purified, glycosylated; molecular weight of 71.1 kDa used
The molecule B1 showed a Ki of 8.8 nM.
